Patent publication US20100221257A1

Molecular target: Antibody 6 (Eu3+ cryptate labelled, Example 5)
Test: HTRF competition: unlabelled test protein (maximum 100 nM) against biotin labelled human IL-1R1/Fc binding to cryptate labelled antibody

Antibody 6 (Eu3+ cryptate labelled, Example 5), sequence (VH, as listed by the source, chain 1 of 2): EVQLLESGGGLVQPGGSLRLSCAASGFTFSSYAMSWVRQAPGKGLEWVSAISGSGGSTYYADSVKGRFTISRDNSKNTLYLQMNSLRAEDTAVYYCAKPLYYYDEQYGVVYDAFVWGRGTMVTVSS
Antibody 6 (Eu3+ cryptate labelled, Example 5), sequence (VL, as listed by the source, chain 2 of 2): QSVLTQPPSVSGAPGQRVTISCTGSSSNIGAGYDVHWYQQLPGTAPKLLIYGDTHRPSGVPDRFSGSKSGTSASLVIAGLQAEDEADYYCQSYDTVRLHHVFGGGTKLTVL

B1: MoIL-1R1 (mouse IL-1R1 extracellular domain Fc fusion) (Fc fusion, UniProt P13504 20-338, looked up, not shown: a dimerising Fc or GST)
chain: LEIDVCTEYPNQIVLFLSVNEIDIRKCPLTPNKMHGDTIIWYKNDSKTPISADRDSRIHQQNEHLWFVPAKVEDSGYYYCIVRNSTYCLKTKVTVTVLENDPGLCYSTQATFPQRLHIAGDGSLVCPYVSYFKDENNELPEVQWYKNCKPLLLDNVSFFGVKDKLLVRNVAEEHRGDYICRMSYTFRGKQYPVTRVIQFITIDENKRDRPVILSPRNETIEADPGSMIQLICNVTGQFSDLVYWKWNGSEIEWNDPFLAEDYQFVEHPSTKRKYTLITTLNISEVKSQFYRYPFICVVKNTNIFESAHVQLIYPVPDFK
Binder B1 has a percentage inhibition at the highest concentration of chimera of 66%.
